From FireProtDB (doi:10.1074/jbc.m304177200)

Conditions: Kitasatospora aureofaciens; pH 7; Thermal; CD; MOPS 30 mM; reversible: yes(>95%); whole UniProt chain shown

B1: Guanyl-specific ribonuclease Sa wild type, P05798 (protein)
chain: DVSGTVCLSALPPEATDTLNLIASDGPFPYSQDGVVFQNRESVLPTQSYGYYHEYTVITPGARTRGTRRIITGEATQEDYYTGDHYATFSLIDQTC
In the case of B1, the Tm is reported as 48.4 °C and the “unfolding enthalpy (van 't Hoff)” value is reported as 95 kcal/mol.
